We go through ten molecules from patent US20230357420A1 (VILLARIS THERAPEUTICS, published 2023).

Residue numbers refer to the chain shown, from its start.

T1: Human CD122 His tagged (human, UniProt P14784 27-240)
T1 construct: also called hCD122; monomeric antigen; not shown: His tag
T1 sequence: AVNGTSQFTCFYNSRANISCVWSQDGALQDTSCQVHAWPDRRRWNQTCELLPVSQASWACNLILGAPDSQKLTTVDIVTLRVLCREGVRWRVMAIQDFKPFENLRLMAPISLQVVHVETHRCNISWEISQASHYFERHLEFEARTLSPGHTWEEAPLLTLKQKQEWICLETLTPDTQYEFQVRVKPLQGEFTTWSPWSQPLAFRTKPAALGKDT

T2: Human CILP2 protein (human, UniProt Q8IUL8 21-1156, limits assumed)
T2 construct: also called cartilage intermediate layer protein 2
T2 sequence (looked up): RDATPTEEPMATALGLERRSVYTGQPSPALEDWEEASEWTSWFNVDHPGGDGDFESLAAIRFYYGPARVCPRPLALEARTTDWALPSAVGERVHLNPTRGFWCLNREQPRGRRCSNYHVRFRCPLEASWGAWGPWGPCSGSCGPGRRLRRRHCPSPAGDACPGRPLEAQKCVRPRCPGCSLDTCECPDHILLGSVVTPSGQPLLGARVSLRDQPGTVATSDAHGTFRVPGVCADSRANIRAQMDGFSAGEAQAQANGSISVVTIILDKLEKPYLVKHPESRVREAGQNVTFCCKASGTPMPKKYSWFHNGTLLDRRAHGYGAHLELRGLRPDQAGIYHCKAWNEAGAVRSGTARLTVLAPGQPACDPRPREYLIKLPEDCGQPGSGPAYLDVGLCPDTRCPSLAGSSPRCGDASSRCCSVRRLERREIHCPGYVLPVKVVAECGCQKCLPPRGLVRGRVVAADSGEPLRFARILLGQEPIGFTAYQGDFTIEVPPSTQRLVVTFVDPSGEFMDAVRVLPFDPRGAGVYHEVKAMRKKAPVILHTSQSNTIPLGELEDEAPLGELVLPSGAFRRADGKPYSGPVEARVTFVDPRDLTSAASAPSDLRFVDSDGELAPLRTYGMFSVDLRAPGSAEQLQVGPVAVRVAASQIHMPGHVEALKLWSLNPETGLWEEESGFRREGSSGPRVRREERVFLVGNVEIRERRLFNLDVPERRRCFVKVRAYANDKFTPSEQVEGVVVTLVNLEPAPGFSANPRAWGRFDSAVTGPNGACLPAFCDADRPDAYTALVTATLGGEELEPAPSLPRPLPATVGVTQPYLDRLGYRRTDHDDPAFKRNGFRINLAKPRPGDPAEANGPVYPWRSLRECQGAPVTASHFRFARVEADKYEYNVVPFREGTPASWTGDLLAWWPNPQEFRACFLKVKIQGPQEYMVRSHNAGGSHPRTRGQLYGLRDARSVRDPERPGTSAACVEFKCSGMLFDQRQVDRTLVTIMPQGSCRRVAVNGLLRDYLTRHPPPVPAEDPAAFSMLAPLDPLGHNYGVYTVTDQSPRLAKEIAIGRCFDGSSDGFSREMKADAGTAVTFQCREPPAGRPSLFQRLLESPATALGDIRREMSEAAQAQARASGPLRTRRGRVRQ

T3: Human CD122 (human, UniProt P14784 27-551)
T3 sequence: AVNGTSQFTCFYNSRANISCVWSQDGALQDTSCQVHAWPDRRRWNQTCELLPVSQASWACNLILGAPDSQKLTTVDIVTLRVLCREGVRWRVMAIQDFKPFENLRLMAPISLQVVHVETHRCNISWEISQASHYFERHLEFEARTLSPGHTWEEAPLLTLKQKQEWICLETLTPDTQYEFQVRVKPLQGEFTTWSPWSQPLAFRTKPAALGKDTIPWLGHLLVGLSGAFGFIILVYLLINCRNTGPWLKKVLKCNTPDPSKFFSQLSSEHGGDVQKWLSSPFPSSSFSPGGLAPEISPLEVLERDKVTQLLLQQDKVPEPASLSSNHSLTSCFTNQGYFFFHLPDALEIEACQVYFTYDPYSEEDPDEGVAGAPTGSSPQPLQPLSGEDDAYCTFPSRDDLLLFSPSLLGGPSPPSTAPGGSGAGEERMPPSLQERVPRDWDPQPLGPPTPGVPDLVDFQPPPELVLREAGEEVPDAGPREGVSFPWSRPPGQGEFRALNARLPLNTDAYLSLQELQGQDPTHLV

T4: Rhesus CD122 His tag (rhesus monkey, UniProt Q38J85 27-240 (cynomolgus entry))
T4 construct: also called rhCD122; cynomolgus and/or rhesus monkey CD122 His tag; not shown: His tag
T4 sequence: T1 sequence with Q7R, A66T, T74A, L83M, V92M, E127K, L158M

T5: Human BCAM protein (human, UniProt P50895 32-547, limits assumed)
T5 construct: Protein used in ELISA; also called BCAM (ELISA antigen)
T5 sequence: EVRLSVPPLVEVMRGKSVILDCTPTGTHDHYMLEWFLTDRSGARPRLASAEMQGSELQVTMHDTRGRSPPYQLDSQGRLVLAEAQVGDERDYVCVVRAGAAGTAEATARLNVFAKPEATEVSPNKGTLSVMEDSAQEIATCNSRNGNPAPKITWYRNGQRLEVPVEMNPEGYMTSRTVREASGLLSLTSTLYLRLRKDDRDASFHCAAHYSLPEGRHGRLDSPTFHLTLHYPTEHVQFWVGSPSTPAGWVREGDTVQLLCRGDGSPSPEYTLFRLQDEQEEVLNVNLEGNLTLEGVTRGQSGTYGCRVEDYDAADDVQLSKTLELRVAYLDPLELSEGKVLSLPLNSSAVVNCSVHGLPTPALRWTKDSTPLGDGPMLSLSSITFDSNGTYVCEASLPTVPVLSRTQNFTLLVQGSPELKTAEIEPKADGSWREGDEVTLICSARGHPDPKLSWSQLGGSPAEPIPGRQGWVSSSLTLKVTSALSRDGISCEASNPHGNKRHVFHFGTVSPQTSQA

B1: FAB18 (Fab, V domains shown)
VH: EVQLLESGGGLVQPGGSLRLSCAASGFSVTSYGVHWIRQAPGKGLEWLGVIWSGGSTDYNAAFISRLTISKDNSKNTVYFQMNSLRAEDTAVYYCARAGDYNYDGFAYWGQGTLVTVSS
VL: DIQMTQSPSSLSASVGDRVTITCQASSSVSFMYWYQQRPGKAPRLLIYDTSNLASGVPSRFSGSGSGTSYTFTISSLQPEDIATYYCQQWSTYPLTFGQGTKVEIK
notes: 06F11-V optimization variant; also called Fab version of MAB18
B2: FAB15 (Fab, V domains shown)
VH: B1 VH with Y101A
VL: B1 VL
notes: 06F11-V optimization variant; also called Fab version of MAB15
B3: FAB05 (Fab, V domains shown)
VH: B1 VH with S28T, G33A, I37V, Y101A
VL: B1 VL with S27Q, M32L
notes: 06F11-V optimization variant; also called Fab version of MAB05
B4: FAB06 (Fab, V domains shown)
VH: B1 VH with S28T, G33A, I37V, Y101A
VL: B1 VL
notes: 06F11-V optimization variant; also called Fab version of MAB06
B5: FAB17 (Fab, V domains shown)
VH: B1 VH
VL: B1 VL with S27Q, M32L
notes: 06F11-V optimization variant; also called Fab version of MAB17
B6: FAB14 (Fab, V domains shown)
VH: B1 VH with Y101A
VL: B1 VL with S27Q, M32L
notes: 06F11-V optimization variant; also called Fab version of MAB14
B7: MAB05 (antibody, V domains shown)
VH: B1 VH with S28T, G33A, I37V, Y101A
VL: B1 VL with S27Q, M32L
notes: also called Mab5; clone 05
B8: MAB06 (antibody, V domains shown)
VH: B1 VH with S28T, G33A, I37V, Y101A
VL: B1 VL
notes: also called Mab6; clone 06
B9: MAB17 (antibody, human IgG1, V domains shown)
VH: B1 VH
VL: B1 VL with S27Q, M32L
notes: also called clone 17
B10: MAB14 (antibody, human IgG1, V domains shown)
VH: B1 VH with Y101A
VL: B1 VL with S27Q, M32L
notes: also called clone 14

T6 sequence (Q9UMX5 32-172 limits assumed): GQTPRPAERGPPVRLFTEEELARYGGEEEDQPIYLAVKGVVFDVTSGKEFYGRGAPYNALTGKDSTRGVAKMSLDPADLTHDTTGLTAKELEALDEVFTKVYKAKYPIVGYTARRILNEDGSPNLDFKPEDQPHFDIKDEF

The target in the first experiment is T1, Human CD122 His tagged. Briefly: Biacore, Fab affinity and kinetics on hCD122.
In turn, B1 registered a Kd of 11.5 nM, a koff of 0.0039 s⁻¹ and a kon of 340000 M⁻¹ s⁻¹.
For B2 the same measures were 5.5 nM, 0.0034 s⁻¹ and 610000 M⁻¹ s⁻¹.
For B3 the same measures were 10.2 nM, 0.0058 s⁻¹ and 570000 M⁻¹ s⁻¹.
Taken in the same sequence, the figures for B4 were 8 nM, 0.0044 s⁻¹ and 540000 M⁻¹ s⁻¹.
As to B5, the affinity, expressed as Kd, was 10.7 nM; the off-rate (koff) was 0.0046 s⁻¹; the kon was found to be 430000 M⁻¹ s⁻¹.
B6: binding was characterised by a dissociation constant (Kd) of 4.3 nM, the koff stood at 0.0037 s⁻¹ and the kon came out at 850000 M⁻¹ s⁻¹.

Another experiment has as its target T2, Human CILP2 protein. Briefly: BIACORE SPR, Fab at 62.5, 125, 250, 500 and 1000 nM on human CILP2 protein; Rmax.
Take B1: the binding result is listed as “no binding (tested: 1000 nM)”.
On to B2, for which the binding result was “no binding (tested: 1000 nM)”.
Same read-out and setting: next, B3: “no binding (tested: 1000 nM)”.
Consider B4, for which the binding result is given as “no binding (tested: 1000 nM)”.
Same read-out and setting: with B5 the entry was “no binding (tested: 1000 nM)”; with B6, “no binding (tested: 1000 nM)”.

The next experiment concerns the target T3, Human CD122. Briefly: cell-based or functional assay.
On to B7, for which the “IC50, IL-15-induced CD4+ T cell accumulation” value worked out at 2.1 µg/mL; the “IC50, IL-15-induced skin-resident CD8+ T cell accumulation” value worked out at 1.9 µg/mL; the “fold improvement of potency over VillMab-1, IL-15 stimulated M07e assay” value is roughly 2 fold.
For B8 the same measures were 1.8 µg/mL, 1.8 µg/mL and roughly 2 fold.

The next experiment addresses T6, Human neudesin protein (human, UniProt Q9UMX5 32-172).
T6 construct: also called NENF
Put plainly: BIACORE SPR, Fab at 62.5, 125, 250, 500 and 1000 nM on human neudesin protein; Rmax.
Regarding B1, the binding result is recorded as “no binding (tested: 1000 nM)”.
On the same count and under the same terms, next, B2: “no binding (tested: 1000 nM)”; B3: “no binding (tested: 1000 nM)”.
Consider B4, for which the binding result is “no binding (tested: 1000 nM)”.
Regarding B5, the binding result is recorded as “no binding (tested: 1000 nM)”.
On to B6, for which the binding result is “no binding (tested: 1000 nM)”.

The target in the next experiment is T4, Rhesus CD122 His tag. Put plainly: Biacore SPR, Fab.
In turn, B1 registered a Kd of 8.55 nM.
Still for that read-out and setting: with B2 the figure was 4.47 nM; with B3, 8.86 nM; with B4, 9.78 nM.
Same read-out and setting: with B5 the figure was 7.93 nM.
The same measure, in the same setting: next, B6: 3.52 nM.

The next experiment has as its target T1, Human CD122 His tagged. Briefly: Biacore SPR, Fab.
B1: binding was characterised by a dissociation constant (Kd) of 11.5 nM.
Same read-out and setting: with B2 the figure was 5.54 nM.
B3 yielded a Kd of 10.2 nM.
B4 came in with a Kd of 8.04 nM.
The same measure, in the same setting: next, B5: 10.7 nM.
Same read-out and setting: with B6 the figure was 4.34 nM.

The target in another experiment is T5, Human BCAM protein. Put plainly: binding ELISA on human BCAM protein, IgG at log10 about 1.1 to 3.0 nM, OD450nm.
With B7, the binding result is “no binding (tested: 1000 nM (log10 3.0))”.
Same read-out and setting: next, B8: “no binding (tested: 1000 nM (log10 3.0))”; B9: “binds”; B10: “binds”.
